No end group written: not given here.
T1: GLP-1R L144A (Homo sapiens)
T1 chain: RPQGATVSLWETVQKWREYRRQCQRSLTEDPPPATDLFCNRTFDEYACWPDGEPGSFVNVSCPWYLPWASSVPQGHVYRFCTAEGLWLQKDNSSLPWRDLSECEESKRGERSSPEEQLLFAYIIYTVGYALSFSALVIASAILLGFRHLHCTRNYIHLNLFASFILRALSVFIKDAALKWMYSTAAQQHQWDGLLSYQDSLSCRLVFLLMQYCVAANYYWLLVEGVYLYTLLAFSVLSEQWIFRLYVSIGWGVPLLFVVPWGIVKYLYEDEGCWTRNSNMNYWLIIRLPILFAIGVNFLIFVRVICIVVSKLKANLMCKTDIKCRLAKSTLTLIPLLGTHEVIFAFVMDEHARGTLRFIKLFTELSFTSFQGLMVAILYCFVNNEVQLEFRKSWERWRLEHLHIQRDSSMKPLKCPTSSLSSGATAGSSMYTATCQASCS

T2: GLP-1R E138A (Homo sapiens)
T2 chain: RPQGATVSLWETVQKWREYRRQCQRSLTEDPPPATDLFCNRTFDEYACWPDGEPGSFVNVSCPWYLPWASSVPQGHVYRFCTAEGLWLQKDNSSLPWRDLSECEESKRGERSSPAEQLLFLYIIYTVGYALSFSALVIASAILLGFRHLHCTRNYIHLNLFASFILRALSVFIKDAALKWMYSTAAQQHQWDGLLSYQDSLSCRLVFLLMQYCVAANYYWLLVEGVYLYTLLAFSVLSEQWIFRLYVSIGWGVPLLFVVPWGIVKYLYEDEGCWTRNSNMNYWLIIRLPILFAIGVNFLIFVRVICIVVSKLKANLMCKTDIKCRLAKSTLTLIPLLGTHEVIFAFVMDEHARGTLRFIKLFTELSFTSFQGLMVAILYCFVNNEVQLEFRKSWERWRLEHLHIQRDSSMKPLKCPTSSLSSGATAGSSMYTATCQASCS

T3: GLP-1R L141A (Homo sapiens)
T3 chain: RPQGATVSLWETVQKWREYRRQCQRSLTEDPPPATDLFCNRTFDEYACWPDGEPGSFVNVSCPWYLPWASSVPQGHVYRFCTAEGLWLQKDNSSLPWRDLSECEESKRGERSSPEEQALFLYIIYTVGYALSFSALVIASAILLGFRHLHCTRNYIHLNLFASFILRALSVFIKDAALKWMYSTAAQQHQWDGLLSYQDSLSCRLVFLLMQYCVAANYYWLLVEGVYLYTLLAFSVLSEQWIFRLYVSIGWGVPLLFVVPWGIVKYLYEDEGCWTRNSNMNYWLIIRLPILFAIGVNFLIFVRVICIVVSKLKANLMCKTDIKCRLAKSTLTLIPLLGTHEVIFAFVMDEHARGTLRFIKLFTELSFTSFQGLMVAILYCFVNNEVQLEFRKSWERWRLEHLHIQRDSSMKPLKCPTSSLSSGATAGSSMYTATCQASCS

T4: GLP-1R V194A (Homo sapiens)
T4 chain: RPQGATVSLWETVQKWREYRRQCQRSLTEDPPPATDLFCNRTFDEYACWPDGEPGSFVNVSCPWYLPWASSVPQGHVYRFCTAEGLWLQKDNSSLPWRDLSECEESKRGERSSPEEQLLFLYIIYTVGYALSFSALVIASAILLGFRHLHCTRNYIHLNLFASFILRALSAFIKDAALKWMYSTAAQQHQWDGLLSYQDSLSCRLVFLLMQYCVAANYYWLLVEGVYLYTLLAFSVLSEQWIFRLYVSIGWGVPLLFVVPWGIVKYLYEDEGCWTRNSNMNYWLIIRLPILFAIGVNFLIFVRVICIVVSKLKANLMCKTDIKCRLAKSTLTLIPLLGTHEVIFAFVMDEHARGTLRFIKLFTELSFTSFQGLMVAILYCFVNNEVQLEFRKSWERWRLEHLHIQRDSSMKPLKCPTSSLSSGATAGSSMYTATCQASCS

T5: GLP-1R K202A (Homo sapiens)
T5 chain: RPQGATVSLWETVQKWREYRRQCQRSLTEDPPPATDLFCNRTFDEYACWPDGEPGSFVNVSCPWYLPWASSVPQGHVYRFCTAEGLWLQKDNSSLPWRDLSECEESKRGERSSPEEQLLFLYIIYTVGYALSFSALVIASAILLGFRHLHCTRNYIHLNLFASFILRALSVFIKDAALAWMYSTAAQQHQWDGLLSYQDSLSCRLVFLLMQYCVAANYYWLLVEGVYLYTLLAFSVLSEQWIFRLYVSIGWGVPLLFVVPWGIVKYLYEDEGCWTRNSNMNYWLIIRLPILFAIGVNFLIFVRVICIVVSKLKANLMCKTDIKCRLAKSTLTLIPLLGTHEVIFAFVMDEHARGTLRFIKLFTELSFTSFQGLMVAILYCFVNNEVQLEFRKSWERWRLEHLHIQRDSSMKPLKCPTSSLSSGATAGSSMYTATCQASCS

T6: GLP-1R D198A (Homo sapiens)
T6 chain: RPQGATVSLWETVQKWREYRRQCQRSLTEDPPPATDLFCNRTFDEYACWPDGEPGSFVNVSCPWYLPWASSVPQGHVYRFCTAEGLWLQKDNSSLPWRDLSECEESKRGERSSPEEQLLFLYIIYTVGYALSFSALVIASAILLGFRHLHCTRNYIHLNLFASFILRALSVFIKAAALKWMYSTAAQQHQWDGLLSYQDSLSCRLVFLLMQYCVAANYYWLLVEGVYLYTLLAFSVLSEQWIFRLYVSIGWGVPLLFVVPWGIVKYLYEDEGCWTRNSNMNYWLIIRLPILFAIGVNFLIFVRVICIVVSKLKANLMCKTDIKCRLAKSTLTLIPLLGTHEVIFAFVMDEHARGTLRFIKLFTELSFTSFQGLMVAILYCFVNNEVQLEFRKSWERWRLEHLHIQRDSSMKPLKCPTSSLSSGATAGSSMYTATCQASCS


Experiments:
[1] = molecular target: T1, GLP-1R L144A
[2] = molecular target: T2, GLP-1R E138A
[3] = molecular target: T3, GLP-1R L141A
[4] = molecular target: T4, GLP-1R V194A
[5] = molecular target: T5, GLP-1R K202A
[6] = molecular target: T6, GLP-1R D198A

| Binder | IC50 [1] [nM] | IC50 [2] [nM] | IC50 [3] [nM] | IC50 [4] [nM] | IC50 [5] [nM] | IC50 [6] [nM] |
| --- | --- | --- | --- | --- | --- | --- |
| HAEGTFTSDVSSYLEGQAAKEFIAWLVKGR (not fully specified (C-terminus)) [glucagon-like peptide-1] | 11 | 6.92 | 14.1 | 6.17 | 6.03 | 155 |
| HSQGTFTSDYSKYLDSRRAQDFVQWLMNTKRNRNNIA [oxyntomodulin] | 51.3 | 45.7 | 603 | 77.6 | 191 | 708 |
